In the Human Domainome abundance scans (Beltran et al. 2025):
± gives the uncertainty stated by the source.

B1: POU domain, class 2, transcription factor 3, residues 186 to 260; numbered along this chain, Q9UKI9 (parent)
chain: SDLEELEKFAKTFKQRRIKLGFTQGDVGLAMGKLYGNDFSQTTISRFEALNLSFKNMCKLKPLLEKWLNDAESSP

Variants of: B1
Experiment: abundance fitness (aPCA) (normalised: wild type 0, dead -1); higher = more abundant; growth selection in yeast, the domain comes from the species named
Conditions: Homo sapiens

Row | Variant | abundance fitness
1 | SDLEELEKFAKTFKQRRIKLGFTQGDVGLAMGKLYGNDFSQTTIHRFEALNLSFKNMCKLKPLLEKWLNDAESSP [S45H] | -0.097 ± 0.05
2 | SDLEELEKFAKTFKQRRIKLGFTQGDVGLAMGKLYGNDFSQTTITRFEALNLSFKNMCKLKPLLEKWLNDAESSP [S45T] | -0.036 ± 0.03
3 | SDLEELEKFAKTFKQRRIKLGFTQGDVGLAMGKLYGNDFSQTTISRFEAHNLSFKNMCKLKPLLEKWLNDAESSP [L50H] | 0.142 ± 0.091
4 | SDLEELEKFAKTFKQRRIKLGFTQGDVGLAMGKLYGNDFSQTTISRFEASNLSFKNMCKLKPLLEKWLNDAESSP [L50S] | 0.031 ± 0.041
5 | SDLEELEKFAKTFKQRRIKLGFTQGDVGLAMGKLYGNDFSQTTISRFEAKNLSFKNMCKLKPLLEKWLNDAESSP [L50K] | -0.051 ± 0.048
6 | SDLEELEKFAKTFKQRRIKLGFTQGDVGLAMGKLYGNDFSQTTISRFEALELSFKNMCKLKPLLEKWLNDAESSP [N51E] | -0.078 ± 0.048
7 | SDLEELEKFAKTFKQRRIKLGFTQGDVGLAMGKLYGNDFSQTTISRFEALNLSFSNMCKLKPLLEKWLNDAESSP [K55S] | 0.011 ± 0.036
8 | SDLEELEKFAKTFKQRRIKLGFTQGDVGLAMGKLYGNDFSQTTISRFEALNLSFKNMCKLKPLLEKWLNDVESSP [A71V] | 0.01 ± 0.038
9 | SDLEELEKFAKTFKQRRIKLGFTQGDVGLAMGKLYGNDFSQTTISRFEALNLSFKNMCKLGPLLEKWLNDAESSP [K61G] | -0.241 ± 0.032
10 | SDLEELEKFAKTFKQRRIKLGFTQGDVGLAMGKLYGNDFSQTTISRFEALNLSFKNMCKLIPLLEKWLNDAESSP [K61I] | -0.128 ± 0.063
11 | SDLEELEKFAKTFKQRRIKLGFTQGDVGLAMGKLYGNDFSQTTISRFEALNLSFKNMCKLLPLLEKWLNDAESSP [K61L] | -0.198 ± 0.041
12 | SDLEELEKFAKTFKQRRIKLVFTQGDVGLAMGKLYGNDFSQTTISRFEALNLSFKNMCKLKPLLEKWLNDAESSP [G21V] | -0.683 ± 0.44
13 | SDLEELEKLAKTFKQRRIKLGFTQGDVGLAMGKLYGNDFSQTTISRFEALNLSFKNMCKLKPLLEKWLNDAESSP [F9L] | -0.514 ± 0.44
14 | SDLEELEKSAKTFKQRRIKLGFTQGDVGLAMGKLYGNDFSQTTISRFEALNLSFKNMCKLKPLLEKWLNDAESSP [F9S] | -0.153 ± 0.29
15 | SDLEELEKFAKTFKQRRIKLGFTQGDVGRAMGKLYGNDFSQTTISRFEALNLSFKNMCKLKPLLEKWLNDAESSP [L29R] | 0.019 ± 0.022
16 | SDLEELEKFAKTFKQRRIKLGFTQGDVGTAMGKLYGNDFSQTTISRFEALNLSFKNMCKLKPLLEKWLNDAESSP [L29T] | -0.083 ± 0.031
17 | SDLEELEKFAKTFKQRRIKLGFTQGDVGLAMGKLYGNDFSQTTISRFEALNLSFKNFCKLKPLLEKWLNDAESSP [M57F] | -0.222 ± 0.14
18 | SDLEELEKFAKTFKQRRIKLGFTQGDVGLAMGKLYGNDFSQTTISRFEALNLSFKNMCKLKPLLEKMLNDAESSP [W67M] | -0.306 ± 0.056
19 | SDLEELEKFAKTFKQRRIKLGFTQGDVGLAMGKLYGNDFSQTTISRFEALNLSFKNMCKLKPLLEKRLNDAESSP [W67R] | -0.731 ± 0.054

Row | Variant | abundance fitness
20 | SDLEELEKFAKTFKQRRIKLGFTQGDVGLAMGKLYGNDFSQTTISRFEALNLSFKNMCKLKPLLEKALNDAESSP [W67A] | -0.603 ± 0.058
21 | SDLEELEKFAKTFKQRRIKLGFTQGDVGLAMGKLYGNDFSQTTISRFEALNLSFKNMCKLKPLLEKWLNDAFSSP [E72F] | -0.24 ± 0.065
22 | SDLEELEKFAKTFKQRRIKLGFTQGDVGLAMGKLYGNDFSQTTISRFETLNLSFKNMCKLKPLLEKWLNDAESSP [A49T] | -0.253 ± 0.25
23 | SDLEELEKFAKTFKQRRIKLGFTQGVVGLAMGKLYGNDFSQTTISRFEALNLSFKNMCKLKPLLEKWLNDAESSP [D26V] | -0.227 ± 0.49
24 | SDLEELEKFAKTFKQRRIKLGFTQGDVGLAMGKLYGIDFSQTTISRFEALNLSFKNMCKLKPLLEKWLNDAESSP [N37I] | -0.039 ± 0.057
25 | SDLEELEKFAKTFKQRRIKLGFTQGDVGLAMGKLYGNDFSQTTISRFEALNLSFKNMCKLKALLEKWLNDAESSP [P62A] | -0.16 ± 0.039
26 | SDLEELEKFAKTFKQRRIKLGFTQGDVGLAMGKLYGNDFSQTTISRFEALNLSFKNMCKLKELLEKWLNDAESSP [P62E] | -0.118 ± 0.041
27 | SDLEELEKFAKTFKQRRIKLGFTQGDVGLAMGKLYGNDFSQTTISRFEALNLSFKNMCKLKPLLHKWLNDAESSP [E65H] | -0.05 ± 0.32
28 | SDLEELEKFAKTFKQRRIKLGFTQGDVGLAMGKLYGNDFSQTTISRFEALNLSFKNMCKLKPLLKKWLNDAESSP [E65K] | 0.042 ± 0.057
29 | SDLEELEKFAKTFKQRRIKLGFTQGDVGLAMGKLYGNDFSQTTISRFEALNLSFKNMCKLKPLLEKWLNDAEQSP [S73Q] | -0.059 ± 0.047
30 | SDLEELEKFAKTFKQRRIKLGFTQGDVGLAMGKLYGNDFSQTTISRFEALNLSFKNMCKLKPLLEKWLNDAEHSP [S73H] | -0.017 ± 0.066
31 | SDLEELEKFAKTFKQRRIKLGFTQGDVGLAMGKLYGNDFSQTTISRFEALNLSFKNMCKLKPLLEKWLNDAEKSP [S73K] | -0.06 ± 0.058
32 | SDLEMLEKFAKTFKQRRIKLGFTQGDVGLAMGKLYGNDFSQTTISRFEALNLSFKNMCKLKPLLEKWLNDAESSP [E5M] | 0.016 ± 0.036
33 | SDLEQLEKFAKTFKQRRIKLGFTQGDVGLAMGKLYGNDFSQTTISRFEALNLSFKNMCKLKPLLEKWLNDAESSP [E5Q] | 0.003 ± 0.04
34 | SDLEELEKFAKTFKQRRIKLGFTQGDVGLAMGKLYGNDFSQTTISRFEALNLSFKNMCKLKPYLEKWLNDAESSP [L63Y] | -0.173 ± 0.11
35 | SDLEELEKFAKTFKQRRIKLGFTQGDVGLAMGKLYGNDFSQTTISRFEALNLSFKNMCKLKPELEKWLNDAESSP [L63E] | -0.127 ± 0.039
36 | SDLEELEKFAKTFKQRRIKLGFTQGDVGLAMGKLYGNDFSQTTISRFEALNLSFKNMCKLKPQLEKWLNDAESSP [L63Q] | -0.108 ± 0.055
37 | SDLEELEKFAKTFKQRRIKLGFTQGDVGLAMGKLYGNDFSQTTISRFEALNLSFKNMCKLKPVLEKWLNDAESSP [L63V] | -0.032 ± 0.032
